Experiments:
[1] = test system: NCC(=O)O; assay: purified protein; conditions: Na+ primary substrate (S1) binding site, near F259 and I359
[2] = test system: C[C@H](N)C(=O)O; assay: purified protein; conditions: Na+ primary substrate (S1) binding site, W259

| Substance | Km [1] | Km [2] |
| --- | --- | --- |
| LeuT (Aquifex aeolicus VF5) | 1.2 ± 0.2 µM |  |
| LeuT (Aquifex aeolicus VF5; F259W) |  | 3.7 ± 0.9 µM |

Reference: article PMC6689989
